Test results from patent US20220002363A1, “COMPOSITIONS AND METHODS FOR TREATING PULMONARY DISEASE” (United States Government As Represented By The Department …, priority 2020, published 2022).
“Also recorded” adds a separate entry of the source.

Tested on: LPS-treated C57BL/6 mice
Experiment: Oropharyngeal LPS lung injury model in C57BL/6 mice treated with mut-sFasL
Format: in vivo, mouse
Settings: for pro-injury or pro-inflammatory effects: normal lungs / administered 24 hours after intratracheal LPS, any dose
Procedure: FIGS. 5A-E show the effects of mut-sFasL on markers of lung inflammation in LPS-treated mice. C57BL/6 mice received oropharyngeal instillations of either PBS or LPS, 2.5 μg/mL. Four hours later some of the mice received oropharyngeal instillations of PBS or mut-sFasL at concentrations of 10 and 100 ng/g and were euthanized 24 hours after the initial LPS/PBS instillations (“early” group). Other mice received the PBS or mut-sFasL (same dose range) 24 hours after LPS/PBS and were euthanized 48 hours after the original LPS instillation (“late” group). N=6 for the groups. In the “late” group, treatment with 100 ng/g mut-sFasL reduced BAL total cells (FIG. 5A), lung homogenate MPO activity (FIG. 5B), and the BAL concentrations of TNF-α, MIP-1β and MCP-1 (FIGS. 5C-E). Data were analyzed by 2-way ANOVA with Dunnet's post hoc analysis; comparisons made to 0 ng/mL for each condition. Data are reported as box plots, in which the box depicts the 25th to 75th percentiles and the lines the min to max range. *=P<0.05; **=P<0.01, ***P<0.001.
FIGS. 6A-D show the effects of mut-sFasL in LPS treated mice. C57BL/6 mice received oropharyngeal instillations of either PBS, or LPS, 2.5 μg/mL. Four hours later some of the mice received oropharyngeal instillations of PBS or mut-sFasL at concentrations of 10 and 100 ng/g and were euthanized 24 hours after the initial LPS/PBS instillations (“early” group). Other mice received the PBS or mut-sFasL (same dose range) 24 hours after LPS/PBS and were euthanized 48 hours after the original LPS instillation (“late” group). N=6 for all groups. […] The administration of mut-sFasL had no effect total BAL protein (FIG. 6B), BAL IgM (FIG. 6C) or total lung homogenate caspase 3/7 activity (FIG. 6D). Data are reported as box plots, in which the box depicts the 25th to 75th percentiles and the lines the min to max range. Data were analyzed by 2-way ANOVA with Dunnett's post hoc analysis; comparisons were made to 0 ng/mL for each condition.
Animal studies. Mice were housed in conventional cages with ad libitum access to tap water and standard chow, in humidity-controlled (50%) and temperature-controlled (22° C.-23° C.) rooms with 12 hours/12 hours light/dark cycles. In the morning, male C57BL/6J mice (Jackson Laboratories, Bar Harbor Me.) weighing […] were anesthetized with 4% inhaled isoflurane and randomized to treatment for one oropharyngeal instillations of either PBS, or LPS, 2.5 μg/mL (Sigma-Aldrich, St. Louis Mo.) (Time=0 hr). The PBS group was instilled first to avoid cross-contamination with LPS. The mice were allowed to recover from anesthesia, given full access to food and water. […] Some of the mice received oropharyngeal instillations of mut-sFasL at 4 hr and were euthanized at 24 hr (“early” group). Other mice received oropharyngeal mut-sFasL at 24 hours and were euthanized at 48 hr (“late” group). In both cases, mut-sFasL doses were 0, 30 and 100 ng/mL. The number of mice used per group was 6, and the total number of mice was 54.
Following instillations, the mice were monitored for signs of discomfort every 15 minutes during the first hour, and then every four hours during daytime. The primary monitoring parameters were loss of prone posture, loss of movement with mild physical stimulation, weight loss of >20% (weight was measured once per day) and severe respiratory distress. Secondary monitoring parameters included ruffled fur, nasal or ocular discharge and an abnormal respiratory pattern. The presence of one major parameter or two minor parameters was considered an indication for euthanasia, but no mice met these criteria. […]

[1] = LPS, 24 hr (early group), mut-sFasL 30
[2] = LPS, 24 hr (early group), mut-sFasL 100
[3] = LPS, 48 hr (late group), mut-sFasL 30
[4] = LPS, 48 hr (late group), mut-sFasL 100

B1: mut-sFasL: mutant sFasL molecule in which 8 charged amino acids in the 26 amino acid stalk region were changed to alanine (protein)
chain: QLFALQAALAALAASTSQMATASSLAKQIGHPSPPPEKKELRKVAHLTGKSNSRSMPLEWEDTYGIVLLSGVKYKKGGLVINETGLYFVYSKVYFRGQSCNNLPLSHKVYMRNSKYPQDLVMMEGKMMSYCTTGQMWARSSYLGAVFNLTSADHLYVNVSELSLVNFEESQTFFGLYKL
BAL cytokine concentration IL-1β [1]: 14.3 ± 10.6
BAL cytokine concentration KC [1]: 118.4 ± 43.7
BAL cytokine concentration MIP-1α [1]: 47.9 ± 10.6
BAL cytokine concentration MIP-2 [1]: 78.0 ± 28.1
BAL cytokine concentration IL-1β [2]: 18.6 ± 5.5
BAL cytokine concentration KC [2]: 154.4 ± 94.3
BAL cytokine concentration MIP-1α [2]: 85.3 ± 20.0
BAL cytokine concentration MIP-2 [2]: 124.1 ± 29.1
BAL cytokine concentration IL-1β [3]: 37.8 ± 23.3
BAL cytokine concentration KC [3]: 113.2 ± 55.8
BAL cytokine concentration MIP-1α [3]: 154.5 ± 78.7
BAL cytokine concentration MIP-2 [3]: 146.7 ± 72.7
BAL cytokine concentration IL-1β [4]: 44.5 ± 23.1
BAL cytokine concentration KC [4]: 136.9 ± 51.9
BAL cytokine concentration MIP-1α [4]: 153.9 ± 42.4
BAL cytokine concentration MIP-2 [4]: 135.7 ± 29.9
BAL IgM (LPS-induced increase): did not affect; also recorded: had no effect
BAL total protein (LPS-induced increase): did not affect; also recorded: had no effect
lung homogenate caspase-3/7 activity (LPS-induced increase): did not affect; also recorded: had no effect
BAL IL-1β (in words) (LPS-treated mice): increase
BAL KC (in words) (LPS-treated mice): not affected
BAL MIP-1α (in words) (LPS-treated mice): increase
BAL MIP-2 (in words) (LPS-treated mice): not affected
weight loss (LPS-treated mice, percent change from initial weight): not affected; also recorded: Weight loss was similar regardless of treatment
BAL cytokine concentration IL-1β (PBS group, mut-sFasL 30): 0.2 ± 0.0
BAL cytokine concentration KC (PBS group, mut-sFasL 30): 1.2 ± 0.6
BAL cytokine concentration MIP-1α (PBS group, mut-sFasL 30): 0.08 ± 0.03
BAL cytokine concentration MIP-2 (PBS group, mut-sFasL 30): 0.1 ± 0.0
BAL cytokine concentration IL-1β (PBS group, mut-sFasL 100): 0.2 ± 0.1
BAL cytokine concentration KC (PBS group, mut-sFasL 100): 1.9 ± 0.9
BAL cytokine concentration MIP-1α (PBS group, mut-sFasL 100): 0.29 ± 0.28
BAL cytokine concentration MIP-2 (PBS group, mut-sFasL 100): 2.3 ± 2.8
lung apoptosis or permeability measurements (PBS-treated mice): did not lead to an increase in lung apoptosis or permeability measurements
effect of early administration (early group (mut-sFasL 4 hours after LPS, euthanized 24 h)): no measurable effect
BAL concentration of MCP-1 (late group): decrease; also recorded: reduced
BAL concentration of MIP-1β (late group): decrease; also recorded: reduced
BAL concentration of TNF-α (late group): decrease; also recorded: reduced
BAL total cell counts (late group (mut-sFasL 24 h after LPS, euthanized 48 h), 100 ng/mL, 100 ng/g): decreased; also recorded: reduced
total lung (homogenate) MPO activity (late group, doses of 30 and 100 ng/mL, 100 ng/g): significantly decreased; also recorded: reduced
pro-injury or pro-inflammatory effects: did not have important pro-injury or pro-inflammatory effects at any dose
pro-injury or pro-inflammatory effects (listed as sFasL with mutated stalk region): not injurious in normal lungs
